Each block holds one molecule with its values, some of them ahead of it.
Legend:
[1] = Evaluation of adsorbability with respect to culture dish (OPA/NAC fluorescence); type: physicochemical; details: FIG. 1
Method: Each of the polypeptides obtained as above was diluted with a predetermined buffer such that they could be added to wells at a predetermined final concentration of 0 pmol/cm^2 to 200 pmol/cm^2. Thereafter, each of the polypeptides was added in an amount of 64 μL to a plasma-treated 96-well plate made of polystyrene (Tissue Culture-Treated, Falcon). Each of the polypeptides was allowed to adsorbed onto the plate by being incubated for 2 hours at 37° C., and then the wells were washed twice with PBS, thereby obtaining surfaces coated with each of the polypeptides of RCP-1 to RCP-16.
Among the surfaces coated with each of the polypeptides obtained as above, the surfaces coated with RCP-1 and RCP-11 to RCP-16 were applied with 64 μL of a borate buffer and 64 μL of 1 N NaOH, followed by incubation for 24 hours at 80° C. and 100% humidity. […] After incubation for 30 minutes at 40° C., the fluorescence intensity thereof was measured by using an ENVISION MULTILABEL COUNTER (trade name, PerkinElmer Inc.) (excitation 355 nm/fluorescence 486 nm). […]

[2] = molecular target: T1, Plasminogen Activator Inhibitor-1 (PAI-1) (Homo sapiens, UniProt P05121); assay: Evaluation of PAI-1 binding properties (plate assay, Scatchard plot); details: for Binding constant: KA from slope of Scatchard plot, PAI-1 170 nM to 2.6 nM, RCP-5 immobilized from 100 μg/ml
T1 construct: purchased R & D Systems Inc 1786-PI
T1 sequence (P05121 24-402): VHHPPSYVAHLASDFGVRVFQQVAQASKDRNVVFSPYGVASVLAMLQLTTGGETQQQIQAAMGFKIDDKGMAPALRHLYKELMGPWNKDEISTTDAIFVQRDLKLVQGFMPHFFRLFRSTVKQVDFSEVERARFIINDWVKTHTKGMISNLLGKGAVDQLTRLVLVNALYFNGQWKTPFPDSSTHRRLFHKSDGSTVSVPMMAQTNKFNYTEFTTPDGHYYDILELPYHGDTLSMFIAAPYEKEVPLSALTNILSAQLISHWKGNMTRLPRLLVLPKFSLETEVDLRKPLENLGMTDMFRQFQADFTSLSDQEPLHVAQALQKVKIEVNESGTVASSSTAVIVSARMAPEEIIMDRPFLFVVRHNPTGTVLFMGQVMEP
Method: By using a Plasminogen Activator Inhibitor-1 (PAI-1) known to bind with a polypeptide having a structure in which Cys 25 and Cys 31 are cross-linked to each other, detection of the cross-linking structure of Cys 25 and Cys 31 was tried.
The polypeptide compositions II-1 and II-2 (100 μg/ml) were added to a flat-bottomed black 96-well plate (half-Area) made of polystyrene at 64 μL/well. The entirety of the plate was covered with a sealing film (Funakoshi Co., Ltd.) and left to stand at 4° C. such that RCP-5 in each of the polypeptide compositions was immobilized. After 12 hours, the liquid in the wells was discarded, and TBS (NIPPON GENE CO., LTD.) containing 5% Bovine Serum Albumin (Sigma-Aldrich Co, LLC.) was added thereto at 150 μL/well. The plate was left to stand for 1 hour at 37° C., and then the liquid in the wells was discarded. Furthermore, BLOCKER CASEIN (trade name, Thermo Scientific Inc.) was added thereto at 150 μL/well, and the plate was left to stand at 37° C. as above so as to performing blocking. After 1 hour, TBS (TBST) containing 0.05% Tween 20 was added thereto at 150 μL/well, and the liquid was continuously discarded from the wells. By performing the above operation 4 times in total, the inside of the wells was washed.
Then, a solution of recombinant PAI-1 (catalog number 1786-PI, R & D Systems Inc) serially diluted with TBS from 170 nM to 2.6 nM at the same factor was added to the respective well at 50 μL/well, and the plate was left to stand at 37° C. After 1 hour, the PAI-1 solution was discarded from the wells, and the wells were washed with TBST 4 times in total by the same method as described above, thereby removing unbound PAI-1. […]
Furthermore, an undiluted solution of HRP-labeled anti-goat IgG antibodies (catalog number 81-1620, Life Technologies) was diluted 7,500-fold with TBS and added to the wells at 100 μL/well. […] The excitation wavelength and the fluorescence wavelength were set to be 330 nm and 410 nm respectively, and the binding of RCP-5 to PAI-1 was measured as a relative fluorescence unit by using ENVISION (trade name, PerkinElmer Inc). […]

iPS cells = assay: Cell growth property evaluation 2 (ALP activity, 72 hours); type: cell-based, human; details: for Number of cells (%/LN-511): same method as Cell growth property evaluation 2, Table 13
Method: Each of the polypeptide liquids was added to the respective wells of a plasma-treated 96-well plate (BD Falcon) made of polystyrene having a plasma-treated cell culture surface, and the plate was held as it is for 2 hours at 37° C. such that the polypeptide was adsorbed thereonto, thereby obtaining a peptide-treated 96-well plate having a polypeptide-coated surface. Into the respective wells of the obtained peptide-treated 96-well plate, iPS cells suspended in a medium obtained by mixing TeSR2 (Stemcell Technologies Inc.) with NUTRISTEM (registered trademark, Bio Industries Inc.) at 1:1 (volume ratio) were seeded at a cell density of 10,000 cells/well. After 72 hours of culture, nonadhesive cells were washed off with PBS, and only adhesive cells were immobilized using 4% by mass paraformaldehyde (Wako Pure Chemical Industries, Ltd.). By using an ATTOPHOS (registered trademark) AP FLUORESCENT SUBSTRATE SYSTEM (Promega Corporation), the ALP activity was calculated, and from the calibration curve, the number of undifferentiated iPS cells having the ALP activity was calculated. In Table 11, the cell growth rate is expressed as a ratio calculated by regarding the number of cells after 72 hours of culture using recombinant laminin as being 100%. n=3.
By the same method as described in <Cell growth property evaluation 2> of Example 3, the cell growth properties of the polypeptide compositions II-1 and II-2 was evaluated. […] That is, it was understood that the polypeptide in which Cys 25, Cys 31, and the intramolecular cross-linking structure bind with each other is excellent in the cell growth activity.

Molecule: RCP-14: recombinant polypeptide SEQ ID NO: 27; human vitronectin positions 1-55 (GPLGDQESCKGRCTEGFNVDKKCQCDELCSYYQSCCTDYTAECKPQVTRGDVFTMPEDE; Synthetic peptide RCP-14)
- amount adsorbed onto the plate, as fraction of the amount of the polypeptide including SEQ ID NO: 3 [1]: about ¼

- Binding constant [2]: 0.22
- binding constant of PAI-1 (in words) ([2]; comparison of compositions): greater
B1: II-1: polypeptide composition containing RCP-5 after reduction treatment with Tris(2-carboxyethyl)phosphine Hydrochloride and dialysis (protein)
chain: MDQESCKGRCTEGFNVDKKCQCDELCSYYQSCCTDYTAECKPQVTRGDVFTMPEDEFWGRTSAGTRQPQFISRDWHGVPGQVDAAMAGRIYISGMAPRPSLAKKQRFRHRNRKGYRSQRGHSRGRNQN
- cell growth properties (in words) (iPS cells; comparison of compositions): better than that of the polypeptide composition II-2
- Number of cells (%/LN-511) (iPS cells): 107 ± 47 %/LN-511

- Binding constant [2]: 0.06
B2: II-2: comparative polypeptide composition containing RCP-5, frozen at −80° C. without being treated, then dialyzed (protein)
chain: B1 chain
- Number of cells (%/LN-511) (iPS cells): 79 ± 5 %/LN-511

B3: RCP-13: recombinant polypeptide SEQ ID NO: 26; human vitronectin positions 1-55, 56-130 (protein)
chain: GPLGDQESCKGRCTEGFNVDKKCQCDELCSYYQSCCTDYTAECKPQVTRGDVFTMPEDEYTVYDDGEEKNNATVHEQVGGPSLTSDLQAQSKGNPEQTPVLKPEEEAPAPEVGASKPEGIDSRPETLHPGRPQP
modifications: Synthetic peptide RCP-13
- amount adsorbed onto the plate, as fraction of the amount of the polypeptide including SEQ ID NO: 3 [1]: about ¼
